Data reported in patent US20220112286A1.

What was measured:
[1] = biological target: human antigen (TRBV9 family beta-chain of the human T cell receptor), immobilized on AR2G sensors (human); assay: BLI, OctetRed 96, antigen immobilized on AR2G sensors, antibody in solution, 1:1 global model
[2] = biological target: membrane TCR belonging to the TRBV9 family on human peripheral blood T lymphocytes (human); assay: flow cytometry sorting of donor T lymphocytes with FITC-labelled MA-043 (100 ng/ml), then sequencing of TCR beta chains of the sorted cells
membrane TCR belonging to the TRBV9 family on human peripheral blood T lymphocytes (human), sequence (A0A0B4J1U6 22-114): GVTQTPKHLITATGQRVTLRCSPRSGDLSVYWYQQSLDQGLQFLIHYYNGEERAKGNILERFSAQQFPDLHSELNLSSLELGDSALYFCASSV

Kd [1]: < 1 pM
koff [1]: < 1e-07 s⁻¹
kon [1]: 329000 M⁻¹ s⁻¹
enrichment of the sorted library with sequences encoded by the TRBV9 gene segment [2]: 91%
B1: monoclonal antibody MA-043 (antibody, V domains shown)
VH: QVQLVQSGPELKKPGESVKVSCKASGYTFTDYLVHWVRQAPGKGLEWMGWINTYTGTPTYADDFEGRFVFSLDTSASTANLQICSLKNEDTATYYCARSWRRGLRGIGFDYWGQGTLVTVSS
VL: DIQMTQSPYSLSASVGDRVTITCKASKSINKYLAWFQQKPGKPNKLLIYDGSTLQSGVPSRFSGSGSGTDFTLTISSLEPEDFATYYCQQHNEYPPTFGQGTKLEIKR
